# Measured values: paper PMC5705077 (Biochemistry, 2017)
# T1: MBP-Brh2^106–1075 (Ustilago maydis, UniProt Q8NJ74 106-1075)
# T1 sequence (looked up): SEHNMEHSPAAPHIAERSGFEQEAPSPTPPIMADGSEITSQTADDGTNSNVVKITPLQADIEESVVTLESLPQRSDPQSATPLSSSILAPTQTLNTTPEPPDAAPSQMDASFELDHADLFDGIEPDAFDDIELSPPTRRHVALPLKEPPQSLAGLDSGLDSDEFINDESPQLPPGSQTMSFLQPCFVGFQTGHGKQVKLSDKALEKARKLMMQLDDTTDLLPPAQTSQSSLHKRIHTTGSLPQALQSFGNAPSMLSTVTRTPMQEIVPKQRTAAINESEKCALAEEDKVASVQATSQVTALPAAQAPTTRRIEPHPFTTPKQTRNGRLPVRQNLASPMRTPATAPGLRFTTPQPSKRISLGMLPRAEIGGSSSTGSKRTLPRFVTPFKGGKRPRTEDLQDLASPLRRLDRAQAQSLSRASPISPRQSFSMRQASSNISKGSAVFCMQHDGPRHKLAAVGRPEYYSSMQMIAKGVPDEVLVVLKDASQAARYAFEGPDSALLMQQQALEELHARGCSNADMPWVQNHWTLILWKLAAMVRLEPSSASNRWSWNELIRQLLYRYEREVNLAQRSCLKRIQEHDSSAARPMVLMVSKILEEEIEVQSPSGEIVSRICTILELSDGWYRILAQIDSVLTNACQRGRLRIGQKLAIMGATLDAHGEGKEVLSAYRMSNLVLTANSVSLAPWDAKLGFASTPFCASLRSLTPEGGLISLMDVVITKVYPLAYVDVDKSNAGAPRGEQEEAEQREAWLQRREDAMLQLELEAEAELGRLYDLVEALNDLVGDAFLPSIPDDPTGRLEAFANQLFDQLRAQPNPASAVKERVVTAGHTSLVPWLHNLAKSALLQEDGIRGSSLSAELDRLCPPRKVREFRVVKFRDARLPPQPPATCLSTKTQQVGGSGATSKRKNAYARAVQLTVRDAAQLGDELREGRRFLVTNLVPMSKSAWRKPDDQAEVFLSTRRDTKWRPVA
# B1: Rad51 (natural protein, UniProt Q99133 1-339, looked up)
# chain: MSQNAQDPAQIGEDDMGEAFGPLPVSKLEEFGISSSDCKKLAESGYNTVESIAFTPKKQLLLVKGVSEAKADKILAEAARLVPMGFTTATEFHARRNELISITTGSKNLDAILGGGMETGSITELYGEFRTGKSQLCHTLAVTCQLPVDMGGGEGKCLYIDTENTFRPTRLLAVAERFGLNGEEVLDNVAYARAYNADHQLQLLMQASAMMAESRFSLLIVDSLTSLYRTDFSGRGELSARQMHLAKFLRGLMRLADEFGVAVVITNQVVAQVDGATAFTADAKKPIGGNIVAHASTTRLSLRKGRGNQRICRIADSPCLPEADAVFAIGPEGIIDPVD
# Legend:
# [1] = target: T1, MBP-Brh2^106–1075; experiment: pull-down
# [2] = target: T1, MBP-Brh2^106–1075; experiment: pull-down; remark: listed apart in the source
binder,measurement,setting,value
B1,stoichiometry N,[1],~2.2 Rad51 per Brh2 (mol:mol)
same,fold Rad51 associated relative to the Brh2/Dss1 heterodimer,[2],~10 fold
